We go through one substance from paper PMC6370554.

This assay deals with biotinylated histone H3K27me3 (21-44) peptide (UniProt P68431). Kind of assay: ELISA. On the technique in general: An ELISA detects its analyte on a solid surface through an enzyme-linked reagent.

“Pcαα fusion protein (tandem human CBX8 PCDs, mCherry, VP64) (from UniProt Q9HC52 1-62; Q9HC52 1-62) (designed binder)”: the HRP ELISA signal:background ratio (H3K27me3 over unmodified H3) was determined as 6.
